Results on one substance are retold here after paper PMC5340008 (BMC Biochemistry, 2017).

This test addresses Bacillus anthracis Bla1 β-lactamase (Bacillus anthracis).

Usually Ki stands for a measure of affinity in units of concentration, obtained from inhibition or displacement. A high value points to lower affinity.

Sequence of BLIP [change] (P35804 37-201 Y86A): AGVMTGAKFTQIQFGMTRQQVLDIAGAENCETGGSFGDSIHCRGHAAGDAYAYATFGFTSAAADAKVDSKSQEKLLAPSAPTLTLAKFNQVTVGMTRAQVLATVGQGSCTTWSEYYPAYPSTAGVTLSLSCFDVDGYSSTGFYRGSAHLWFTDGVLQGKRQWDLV

As for “BLIP [change] (from UniProt P35804 37-201) (natural protein)”, the Ki turned out to be 1.2 nM.
